{
  "source": "paper PMC10301331",
  "about": "“Molecular Engineering of E. coli Bacterioferritin: A Versatile Nanodimensional Protein Cage” (Molecules, 2023)",
  "molecular_target": "the molecule itself",
  "assay": "SEC + other: dynamic light scattering; His-tag Bfr (alone or in ratios with WT Bfr) declustered at pH 2.0, incubated with Pro-Q Sapphire 365 NTA dye and Ni2+, reclustered by dialysis to pH 7.0 (methods: pH 8.0), then size exclusion",
  "data": [
    {"protein": "His-tagged Escherichia coli bacterioferritin (C-terminal His-tag) (natural protein, Escherichia coli bacterioferritin (Bfr) subunit; the gene coding for E. coli Bfr was cloned; also called His-tag Bfr; His-tagged Bfr; source: details in Supplementary Materials; not shown: His6 (after a two amino acid linker Leu-Glu), C-terminal, kept; copies: 24) not shown", "values": [
      {"measurement": "stoichiometry N", "value": 24}
    ]}
  ]
}
